1 molecule from patent publication US20240016917A1 (ACADEMIA SINICA, published 2024) can be followed below.

Assay [1] deals with T1, SARS-CoV-2 S protein (entire S ectodomain) (SARS-CoV-2, UniProt P0DTC2 14-1209).
Assay [2] concerns the target Alpha (SARS-CoV-2).
Assay [3] addresses D614G.
Assay [4] concerns the target Beta (SARS-CoV-2).
For assay [5], the target named is WT.
Assay [6] has as its target T1, SARS-CoV-2 S protein (entire S …). Kind of assay: biolayer interferometry (BLI).

B1: monoclonal antibody (mAb) m31A7 (antibody, V domains shown)
VH: EVQLQQSGPEMVKPGASVKISCKTSGYTFTEYTIYWVKQSHGKSLEWLGGINPNIGDTTYNQKFKGKATLTVDTSSSTAYMELRSLTSEDSAVYYCAREVYNYSFAYWGQGTLVTVSA
VL: DIVMSQSPSSLAVSVGEKVTMSCKSSQSLLYSSNQKNYLAWYQQKLGQTPKLLIYWASSRESGVPDRFTGSGSGTDFTLTISSVRAEDLAVYYCQQYYRYPLTFGVGTKLELKR
For B1, the EC50 in assay [1] worked out at 0.0312 nM; in assay [2], 0.0446 nM; in assay [3], 0.0321 nM; in assay [4] it was 0.0325 nM; in assay [5], 0.0685 nM. This molecule also yielded a Kd in assay [6] of 0.0709 nM.

The term EC50 denotes the concentration at which the effect is half-maximal. Low values mean a more potent agent, high ones a less potent agent. Usually Kd stands for a measure of binding affinity in units of concentration. A high value points to lower affinity.
